Test results reported in the supplement of paper PMC12042874.
± gives the uncertainty stated by the source.

Test: amyloid nucleation score (Sup35N fusion, yeast selection) (log enrichment); library NNK3; higher = more nucleation; inactive = no reads after selection
Outline: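 On medium lacking adenine and uracil, psi-negative yeast expressing peptides of 20 random codons fused to Sup35N were grown 7 days at 30°C after a 24-hour induction with 100 μM copper sulfate. Illumina sequencing of input and output plasmid inserts gave the reads, and sequences under 100 input reads were excluded. The nucleation score is the DiMSum log enrichment of output over input reads, centred on the mode score of non-aggregating sequences.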
In the case of VRLTLIRSLRARRDGEDSKM, the amyloid nucleation score is reported as “inactive”. For VRLYMYMTILIGNVDLFVEG, the amyloid nucleation score was “inactive”. In the case of VRMCVIVQVKVCARDMTVST, the amyloid nucleation score is reported as “inactive”. For VRQHCQMLMILFLYPLACGS, the amyloid nucleation score was “inactive”. In the case of VRRCNTCLQ, the amyloid nucleation score is reported as “inactive”. VRRTLYISMRLRLIPYLSNV gave an amyloid nucleation score of 1.62 ± 0.11. VRSHPCSGGTLVGWDSYW gave an amyloid nucleation score of 1.01 ± 0.14. With VRSIRWKVT the amyloid nucleation score was “inactive”. Substance VRVELNYKMMHMSHRIMY has an amyloid nucleation score of 1.52 ± 0.073. With VRVMDLVGKALSTSSVANLA the amyloid nucleation score was “inactive”. In the case of VSACIWRKLPVFVYSVSAGS, the amyloid nucleation score is reported as “inactive”. With VSANSMFIRGLIDSILAELA the amyloid nucleation score was “inactive”. With VSASILS the amyloid nucleation score was “inactive”. With VSCESECLLLMIKKYFGSDS the amyloid nucleation score was 0.12 ± 0.26. For VSDIGCMGVDSLSPGYHNIV, the amyloid nucleation score was “inactive”. With VSDKHVYCMEGCMP the amyloid nucleation score was “inactive”. In the case of VSDRVSLSVGG, the amyloid nucleation score is reported as “inactive”. In the case of VSEIW, the amyloid nucleation score is reported as “inactive”. In the case of VSETMWMSFLTVSFELRVDG, the amyloid nucleation score is reported as “inactive”. VSFELYMHFSSFSYFGMLKG showed an amyloid nucleation score of 1.16 ± 0.13. With VSFHRRKLNHCNCRML the amyloid nucleation score was “inactive”. In the case of VSFNKPLKQVKGPAVTGWKE, the amyloid nucleation score is reported as “inactive”. Substance VSFNP has an amyloid nucleation score of -0.32 ± 0.6. With VSFYIVKSLEEAGVSR the amyloid nucleation score was 1.36 ± 0.15. For VSIRTR, the amyloid nucleation score was “inactive”. For VSKVMSEMIYVGIYICKCCL, the amyloid nucleation score was 1.39 ± 0.11. With VSMVQVTIRKRAS the amyloid nucleation score was “inactive”. In the case of VSNDLWATVYHWGL, the amyloid nucleation score is reported as “inactive”. With VSNYTSRNNYVNCQLELTRA the amyloid nucleation score was “inactive”. For VSRFVLLWMSNCWATYGLFR, the amyloid nucleation score was “inactive”. With VSRGDTINIISSVDCVKTYF the amyloid nucleation score was “inactive”. Substance VSRRFVIM has an amyloid nucleation score of 0.45 ± 0.17. For VSRYGYCCRRIYAELHGFPD, the amyloid nucleation score was “inactive”. With VSSATTTMARRIHCFRVSRV the amyloid nucleation score was “inactive”. In the case of VSSEGYIADTA, the amyloid nucleation score is reported as 0.292 ± 0.57. For VSTHVLHPYTYT, the amyloid nucleation score was “inactive”. With VSTWGRDLVVTIAGR the amyloid nucleation score was “inactive”. With VSVCLKELHQ the amyloid nucleation score was “inactive”. With VSVEFRSDSARWGNDVCEET the amyloid nucleation score was “inactive”. For VSVIWSMMCIRIITISCGRV, the amyloid nucleation score was “inactive”. VSWLCSMKDICPHCDEINYR gave an amyloid nucleation score of 1.8 ± 0.062. In the case of VSYGTCH, the amyloid nucleation score is reported as “inactive”. With VTKARSHYTVSVLMDEKCMG the amyloid nucleation score was “inactive”. For VTLQLPDCFGRACIGLAYIA, the amyloid nucleation score was “inactive”. With VTPVTYQASLTICYSYKALH the amyloid nucleation score was “inactive”. For VTRHEFVLLLETVPISYWPH, the amyloid nucleation score was “inactive”. For VTRIW, the amyloid nucleation score was “inactive”. For VTVCRHTPILIKKPM, the amyloid nucleation score was “inactive”. With VTWAAMWASRRVIQVITLRL the amyloid nucleation score was “inactive”. With VVASDNSTMVENWSFNGKMS the amyloid nucleation score was “inactive”. Substance VVCFFYNVF has an amyloid nucleation score of 2.36 ± 0.055. For VVCIHLVVDTVC, the amyloid nucleation score was “inactive”. For VVCLFDVKFESARVLDLLSV, the amyloid nucleation score was “inactive”. In the case of VVGLWTNS, the amyloid nucleation score is reported as “inactive”. In the case of VVIFFRIQRVTCVWNVLL, the amyloid nucleation score is reported as “inactive”. For VVLMALVQVYFTSGGMFIKD, the amyloid nucleation score was “inactive”. Work on VVLNWNTNGY yielded an amyloid nucleation score of 0.669 ± 0.15. With VVMFSTPDIVDILSHVYRLG the amyloid nucleation score was “inactive”. With VVNRHGYLAMLK the amyloid nucleation score was “inactive”. For VVRFLDQKMYVVGLLSGS, the amyloid nucleation score was “inactive”. VVVCNRIVNSSEFRCSYTRK showed an amyloid nucleation score of 1.73 ± 0.09. With VVVKKSVVDAWSAYYFRLFV the amyloid nucleation score was “inactive”. Substance VWGYSMYVLQIWERYSSNV has an amyloid nucleation score of 1.01 ± 0.13. With VWIRRTCDFNQYRESDLLIR the amyloid nucleation score was “inactive”. In the case of VWNVQSFQ, the amyloid nucleation score is reported as “inactive”. For VWRAWAINGTATWCLIGDHG, the amyloid nucleation score was “inactive”. With VWRSNF the amyloid nucleation score was “inactive”. With VWSVHSHTQPMHSWSVRSAG the amyloid nucleation score was “inactive”. For VWTGHCMASFVRFTCSVVDD, the amyloid nucleation score was “inactive”. For VWVSVWVVLTAV, the amyloid nucleation score was “inactive”. For VWVVV, the amyloid nucleation score was “inactive”. With VYAVIDWRDLCF the amyloid nucleation score was “inactive”. In the case of VYCLAECYRIMRYAPFQVV, the amyloid nucleation score is reported as “inactive”. With VYDDSTIDT the amyloid nucleation score was “inactive”. With VYDVSQVGLSRSSFFGAVQA the amyloid nucleation score was “inactive”. In the case of VYECFSSWTWSWVCQCQAVF, the amyloid nucleation score is reported as “inactive”. With VYFENSGFTTVTREACLY the amyloid nucleation score was “inactive”. With VYFHSGSARFNTGTQL the amyloid nucleation score was “inactive”. VYFRFYNL showed an amyloid nucleation score of 1.36 ± 0.073. With VYGLMIIWVIVLYPV the amyloid nucleation score was “inactive”. With VYPWFA the amyloid nucleation score was “inactive”. With VYRLEVDISTILEGWSG the amyloid nucleation score was “inactive”. For VYRLFRMYILTGGLNVNGGR, the amyloid nucleation score was “inactive”. In the case of VYSSVEFCISEKTHLKVWVL, the amyloid nucleation score is reported as “inactive”. Work on VYTRSGHV yielded an amyloid nucleation score of -0.112 ± 1.3. For VYVSYGTFWMSKVWWCDKPG, the amyloid nucleation score was “inactive”. In the case of VYYVNS, the amyloid nucleation score is reported as 0.492 ± 0.18. For WAFSVKKWRTVLRKCILQWG, the amyloid nucleation score was “inactive”. In the case of WAPLQALSFGK, the amyloid nucleation score is reported as “inactive”. For WAVCKAHDVSVDTDYYSSTG, the amyloid nucleation score was 0.302 ± 0.45. In the case of WCAWAVTCLTGVISRPLHES, the amyloid nucleation score is reported as 0.042 ± 0.43. In the case of WCESDVMDFGSYFADFLS, the amyloid nucleation score is reported as “inactive”. With WCFWNSC the amyloid nucleation score was “inactive”. For WCGVSLVL, the amyloid nucleation score was “inactive”. In the case of WCLSCVLTNIRVRIPNRTVV, the amyloid nucleation score is reported as “inactive”. With WCMFMMSNWRVRPADLFCIS the amyloid nucleation score was “inactive”. In the case of WCNVRYLVDMRFFTTVGVKL, the amyloid nucleation score is reported as “inactive”. For WDSWESYFASHHSF, the amyloid nucleation score was “inactive”. Substance WEFAGVVYEWGVWKSVSGYG has an amyloid nucleation score of 0.336 ± 0.3. For WEHLGETYGVFMSTEDRESG, the amyloid nucleation score was “inactive”. For WELMCKALGRGRRCWYKCFL, the amyloid nucleation score was “inactive”. For WEWVRPFFLLGYAPEPNITI, the amyloid nucleation score was 0.232 ± 0.48. For WFSSKRDLR, the amyloid nucleation score was “inactive”. With WFVQLSRMWFYANGNCPV the amyloid nucleation score was “inactive”. With WFYVIGTVMWYSLNAGYYMW the amyloid nucleation score was “inactive”. In the case of WGDIEVFFSYVVYLSIWRES, the amyloid nucleation score is reported as “inactive”. For WGGSVRYKVSRICLGQCERE, the amyloid nucleation score was “inactive”. In the case of WGILW, the amyloid nucleation score is reported as 0.482 ± 0.15. In the case of WGLMIWSWPYMFCTLLPASR, the amyloid nucleation score is reported as “inactive”. In the case of WGRGLRPTLVGMFARAHRGA, the amyloid nucleation score is reported as “inactive”. In the case of WGWPSFTCTWLCRRSSCRWP, the amyloid nucleation score is reported as “inactive”. With WHIEVC the amyloid nucleation score was “inactive”. For WHSKWVWNHNWLGSINCRYE, the amyloid nucleation score was “inactive”. With WIDRQLKRGL the amyloid nucleation score was “inactive”. In the case of WIGMYSGETAFLSLPVTQQI, the amyloid nucleation score is reported as “inactive”. In the case of WIHRMLSSGVDSPRNTSLWT, the amyloid nucleation score is reported as “inactive”. WIHSGSSHWLNACDRMDMTK gave an amyloid nucleation score of -0.753 ± 1.3. In the case of WIIEGSRLRC, the amyloid nucleation score is reported as “inactive”. With WILLGNGSMNMKSCFMLLFV the amyloid nucleation score was “inactive”. With WIMPLDQ the amyloid nucleation score was “inactive”. In the case of WINGTISDC, the amyloid nucleation score is reported as “inactive”. In the case of WIPHPEFGVSIGIV, the amyloid nucleation score is reported as “inactive”. In the case of WIVKL, the amyloid nucleation score is reported as “inactive”. For WKATNNAASVFGDLYGYYAN, the amyloid nucleation score was “inactive”. With WKDWKLRPNY the amyloid nucleation score was “inactive”. In the case of WKLASVFAVSMR, the amyloid nucleation score is reported as “inactive”. Substance WKTRHRVEVWASFLLSYQTG has an amyloid nucleation score of -0.551 ± 0.62. With WLARTRRVVLRNLVLAVTCI the amyloid nucleation score was “inactive”. With WLDWSAGHCGYVKLLW the amyloid nucleation score was “inactive”. With WLFNYRILCLSVMWFTKSIE the amyloid nucleation score was “inactive”. In the case of WLLENVPGITLAFV, the amyloid nucleation score is reported as “inactive”. With WLLFDPVGVVKQSLVARNSY the amyloid nucleation score was “inactive”. WLNYCNCV showed an amyloid nucleation score of 1.91 ± 0.078. In the case of WLPPRVMLFTPLRQWLYR, the amyloid nucleation score is reported as “inactive”. In the case of WLQISIEKTTKFPSKMNH, the amyloid nucleation score is reported as 1.58 ± 0.11. With WLRLSL the amyloid nucleation score was “inactive”. With WLVFITPYLSLSCLSLINKI the amyloid nucleation score was “inactive”. In the case of WLVSRIVHSLVVVIFDKDEG, the amyloid nucleation score is reported as “inactive”. In the case of WMFRSAVFYGYVYALGCMRS, the amyloid nucleation score is reported as 0.924 ± 0.22. With WMPQFCLRCSSVV the amyloid nucleation score was “inactive”. With WNGKGLSSGTLSISRKT the amyloid nucleation score was “inactive”. With WNMNYVQFDGNVLVNAD the amyloid nucleation score was “inactive”. In the case of WNMVYFLLQFSIDASLGT, the amyloid nucleation score is reported as “inactive”. In the case of WNNRWVCNLSTSSGMNLLDR, the amyloid nucleation score is reported as “inactive”. In the case of WNPCVHTLGI, the amyloid nucleation score is reported as “inactive”. For WNSLMAK, the amyloid nucleation score was “inactive”. For WPFHWSFSFVISMYMSWGNS, the amyloid nucleation score was “inactive”. Substance WPGLRCDSGQDKRNMF has an amyloid nucleation score of -0.039 ± 1. For WPKLVGCYRGSKGINGRVLY, the amyloid nucleation score was “inactive”. With WQPDTVKGEVLLRVGTMLSV the amyloid nucleation score was “inactive”. Substance WQRNFEWIYDPLRAKSWNSI has an amyloid nucleation score of -0.558 ± 0.76. In the case of WQSRTKP, the amyloid nucleation score is reported as “inactive”. For WQVVGYKNLDLCVNLATTDW, the amyloid nucleation score was “inactive”. In the case of WRFGRVFDWGRLHLGVDRCR, the amyloid nucleation score is reported as “inactive”. For WRGYPFAPVFYLI, the amyloid nucleation score was “inactive”. With WRKTSVMFADSGIV the amyloid nucleation score was “inactive”. In the case of WSDIIVGIRTNCDVLFSGAY, the amyloid nucleation score is reported as “inactive”. In the case of WSDLRI, the amyloid nucleation score is reported as “inactive”. WSFQLSVLFVCNLITYNCV showed an amyloid nucleation score of 1.68 ± 0.069. With WSIRMW the amyloid nucleation score was “inactive”. In the case of WSNTFVWLSINLSYIV, the amyloid nucleation score is reported as “inactive”.
